Data published in PMC9130890.

Biological target: autologous SHIV_(1157ipd3N4) gp120 monomer (SHIV_(1157ipd3N4))

B1: unmutated common ancestor (UCA) of the J038 lineage (antibody, V domains shown)
VH: QLQLQESGPGLVKPSETLSLTCAVSGGSISSNYWSWIRQPPGKGLEWIGRISGSGGSTDYNPSLKSRVTISTDTSKNQFSLKLSSVTAADTAVYYCAREVAEDDYGYYQPYFDYWGQGVLVTVSS
VL: DIQMTQSPSSLSASVGDRVTITCRASQGISSYLAWYQQKPGKAPKLLIYAASSLQSGVPSRFSGSGSGTDFTLTISSLQPEDFATYYCQQYNSLPLTFGGGTKVEIK
neutralisation of the autologous tier 2 1157ipd3N4 pseudovirus on TZM-bl cells, IC50: 4.97 µg mL^−1
